Here are results for one molecule from article doi:10.1101/2022.10.14.512271.

Data set [1] addresses lac repressor M42I (Ihk) (UniProt P03023 1-360, M42I). In words: fluorescence anisotropy.
In data set [2] the target is lac repressor M42I/K84L (IhL) (UniProt P03023 1-360, M42I;K84L). In words: fluorescence anisotropy.
Chain of lac repressor M42I/K84L (IhL) (P03023 whole entry M42I/K84L): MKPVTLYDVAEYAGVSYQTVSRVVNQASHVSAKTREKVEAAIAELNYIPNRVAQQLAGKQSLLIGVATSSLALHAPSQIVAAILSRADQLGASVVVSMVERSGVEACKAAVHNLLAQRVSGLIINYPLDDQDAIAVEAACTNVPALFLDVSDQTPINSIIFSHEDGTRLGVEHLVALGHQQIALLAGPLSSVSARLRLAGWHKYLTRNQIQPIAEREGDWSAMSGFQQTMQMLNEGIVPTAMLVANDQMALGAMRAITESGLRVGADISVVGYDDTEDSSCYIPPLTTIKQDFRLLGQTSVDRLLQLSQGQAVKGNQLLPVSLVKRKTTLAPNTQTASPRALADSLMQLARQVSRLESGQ

Chain of lac repressor M42I (Ihk) (P03023 whole entry M42I): as the sequence (P03023 whole entry M42I/K84L) above, with L84K counted along it

B1: FI-Oid (18-mer operator) (dsDNA)
DNA 1: ATTGTGAGCGCTCACAAT
DNA 2: ATTGTGAGCGCTCACAAT
As to B1, the binding result in data set [1] and in data set [2] was “binds” in each case.
